The target in experiment [1] is T1, Human ACVR2A (human, UniProt P27037 20-135, limits assumed).
T1 construct: also called activin receptor, type II A
Kind of experiment: ELISA. The procedure:
(§1) The binding of ACVR2A-specific monoclonal antibodies to human ACVR2A, mouse ACVR2A, biotinylated goat anti-human kappa light chain (positive control) and human Fc (negative control) were determined by ELISA.
In general terms: ELISA stands for enzyme-linked immunosorbent assay.

For experiment [2], the target named is Mouse ACVR2A (mouse, UniProt P27038 20-135, limits assumed). The experiment in a line: ELISA. The protocol: as §1
Experiment [3] has as its target T2, Goat anti-Human Kappa.
T2 construct: Positive control; also called biotinylated goat anti-human kappa light chain
The experiment in a line: ELISA; positive control. The protocol:
as §1
Further: test concentration or dose not given here.

Chain of Mouse ACVR2A (P27038 20-135 limits assumed): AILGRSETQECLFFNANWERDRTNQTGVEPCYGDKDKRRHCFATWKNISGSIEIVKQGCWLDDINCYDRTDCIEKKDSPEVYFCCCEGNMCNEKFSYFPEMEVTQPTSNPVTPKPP
T1 sequence (P27037 20-135 limits assumed): as the sequence (P27038 20-135 limits assumed) above, with R20K, I73V counted along it

B1: 367_H10 (antibody, V domains shown)
VH: EVQLLESGGGLVQPGGSLRLSCAASGFTFSSYGMNWVRQAPGKGLEWVASINYNGGYTGYADSVKGRFTISRDNSKNTLYLQMNSLRAEDTAVYYCARGATWHDTHLDYWGQGTLVTVSS
VL: DIQMTQSPSSLSASVGDRVTITCRASQSILSYVNWYQQKPGKAPKLVIYAATSRASGVPSRFSGSGSGTDFTLTISSLQPEDFATYYCQQSYELPLTFGGGTKVEIK
notes: VH/VL only
As to B1, the optical density in experiment [1] is 2.58 OD; in experiment [2] it was 2.35 OD; in experiment [3] it was 3.55 OD.

B2: 368_F06 (antibody, V domains shown)
VH: EVQLLESGGGLVQPGGSLRLSCAASGFTFDDYSMHWVRQAPGKGLEWVANINYNSGYTGYADSVKGRFTISRDNSKNTLYLQMNSLRAEDTAVYYCARGATWHDTHLDYWGQGTLVTVSS
VL: DIQMTQSPSSLSASVGDRVTITCRASQSILSYLNWYQQKPGKAPKLVIYATTSRASGVPSRFSGSGSGTDFTLTISSLQPEDFATYYCQQSYENPLTFGGGTKVEIK
notes: VH/VL only
Consider B2, for which the optical density in experiment [1] amounted to 1.6 OD; in experiment [2] it was 1.68 OD; in experiment [3], 3.31 OD.

B3: 369_F09 (antibody, V domains shown)
VH: EVQLLESGGGLVQPGGSLRLSCAASGFTFSSYGMHWVRQAPGKGLEWVAGINYNGGYTSYADSVKGRFTISRDNSKNTLYLQMNSLRAEDTAVYYCARGATWHDTHLDYWGQGTLVTVSS
VL: DIQMTQSPSSLSASVGDRVTITCRASQSILTYVNWYQQKPGKAPKLLIYAATSRASGVPSRFSGSGSGTDFTLTISSLQPEDFATYYCQQSYDSPLTFGGGTKVEIK
notes: VH/VL only
Turning to B3, the results for the optical density in experiment [1], in experiment [2] and in experiment [3] were 3.23 OD, 3.38 OD and 3.6 OD, respectively.

B4: 369_F05 (antibody, V domains shown)
VH: EVQLLESGGGLVQPGGSLRLSCAASGFTFSSYSMNWVRQAPGKGLEWVSGINYNGGYKSYADSVKGRFTISRDNSKNTLYLQMNSLRAEDTAVYYCARGATWHDTHLDYWGQGTLVTVSS
VL: DIQMTQSPSSLSASVGDRVTITCRASQSISSYLNWYQQKPGKAPKLLIYAASSLQSGVPSRFSGSGSGTDFTLTISSLQPEDFATYYCQQGYDSPLTFGGGTKVEIK
notes: VH/VL only
For the molecule B4, the optical density in experiment [1] is 0.796 OD; in experiment [2], 0.931 OD; in experiment [3], 3.46 OD.

B5: 369_E08 (antibody, V domains shown)
VH: EVQLLESGGGLVQPGGSLRLSCAASGFTFSSYSMNWVRQAPGKGLEWVASINYNSGYTGYADSVKGRFTISRDNSKNTLYLQMNSLRAEDTAVYYCARGATWHDTHLDYWGQGTLVTVSS
VL: DIQMTQSPSSLSASVGDRVTITCRASQSILTYVNWYQQKPGKAPKLLIYAATSRASGVPSRFSGSGSGTDFTLTISSLQPEDFATYYCQQSYDSPLTFGGGTKVEIK
notes: VH/VL only
Consider B5, for which the optical density worked out at 1.03 OD in experiment [1], 1.23 OD in experiment [2] and 1.12 OD in experiment [3].

B6: 368_G10 (antibody, V domains shown)
VH: EVQLLESGGGLVQPGGSLRLSCAASGFTFSSYSMHWVRQAPGKGLEWVSSINYNGGYTSYADSVKGRFTISRDNSKNTLYLQMNSLRAEDTAVYYCARGATWHDTHLDYWGQGTLVTVSS
VL: DIQMTQSPSSLSASVGDRVTITCRASQSIVSYVNWYQQKPGKAPKLVIYAATSRASGVPSRFSGSGSGTDFTLTISSLQPEDFATYYCQQSYDTPLTFGGGTKVEIK
notes: VH/VL only
Consider B6, for which the optical density in experiment [1] turned out to be 2.06 OD; in experiment [2], 2.28 OD; in experiment [3], 3.45 OD.

B7: 368_D02 (antibody, V domains shown)
VH: EVQLLESGGGLVQPGGSLRLSCAASGFTFDDYGMNWVRQAPGKGLEWVSNINYNGGYTGYADSVKGRFTISRDNSKNTLYLQMNSLRAEDTAVYYCARGATWHDTHLDYWGQGTLVTVSS
VL: DIQMTQSPSSLSASVGDRVTITCRASQSISTYLNWYQQKPGKAPKLVIYAATSRHSGVPSRFSGSGSGTDFTLTISSLQPEDFATYYCQQSYDTPLTFGGGTKVEIK
notes: VH/VL only
As for B7, the figures for the optical density in experiment [1], in experiment [2] and in experiment [3] were 1.93 OD, 2.26 OD and 3.52 OD, respectively.

B8: 368_G03 (antibody, V domains shown)
VH: EVQLLESGGGLVQPGGSLRLSCAASGFTFSSYSMNWVRQAPGKGLEWVSGINYNSGYTSYADSVKGRFTISRDNSKNTLYLQMNSLRAEDTAVYYCARGATWHDTALDYWGQGTLVTVSS
VL: DIQMTQSPSSLSASVGDRVTITCRASQSILSYLNWYQQKPGKAPKLVIYAATSRASGVPSRFSGSGSGTDFTLTISSLQPEDFATYYCQQSYDTPLTFGGGTKVEIK
notes: VH/VL only
For B8, the values for the optical density in experiment [1], in experiment [2] and in experiment [3] were 2.73 OD, 2.75 OD and 3.39 OD, respectively.

B9: 368_D12 (antibody, V domains shown)
VH: EVQLLESGGGLVQPGGSLRLSCAASGFTFSSYGMNWVRQAPGKGLEWVSSINYNGGYTSYADSVKGRFTISRDNSKNTLYLQMNSLRAEDTAVYYCARGATWHDTHLDYWGQGTLVTVSS
VL: DIQMTQSPSSLSASVGDRVTITCRASQSILSYVNWYQQKPGKAPKLVIYAATSRASGVPSRFSGSGSGTDFTLTISSLQPEDFATYYCQQSYNNPLTFGGGTKVEIK
notes: VH/VL only
In the case of B9, the optical density stood at 2.25 OD in experiment [1], 2.28 OD in experiment [2] and 3.57 OD in experiment [3].

B10: 369_D08 (antibody, V domains shown)
VH: EVQLLESGGGLVQPGGSLRLSCAASGFTFSDYSMNWVRQAPGKGLEWVASINYNGGYKGYADSVKGRFTISRDNSKNTLYLQMNSLRAEDTAVYYCARGATWHDTHLDYWGQGTLVTVSS
VL: DIQMTQSPSSLSASVGDRVTITCRASQSILTYLNWYQQKPGKAPKLLIYAATSRASGVPSRFSGSGSGTDFTLTISSLQPEDFATYYCQQSYDTPLTFGGGTKVEIK
notes: VH/VL only
B10: the optical density in experiment [1] was determined as 2.94 OD; in experiment [2] it was 3.13 OD; in experiment [3] it was 3.06 OD.

B11: 369_G05 (antibody, V domains shown)
VH: EVQLLESGGGLVQPGGSLRLSCAASGFTFSSYSMNWVRQAPGKGLEWVAGINYNGGYTSYADSVKGRFTISRDNSKNTLYLQMNSLRAEDTAVYYCARGATWHDTHLDYWGQGTLVTVSS
VL: DIQMTQSPSSLSASVGDRVTITCRASQSIVSYLNWYQQKPGKAPKLLIYAATSRHSGVPSRFSGSGSGTDFTLTISSLQPEDFATYYCQQSYDSPLTFGGGTKVEIK
notes: VH/VL only
Turning to B11, the optical density in experiment [1] worked out at 3.04 OD; in experiment [2] it was 3.28 OD; in experiment [3], 3.31 OD.

B12: 368_B02 (antibody, V domains shown)
VH: EVQLLESGGGLVQPGGSLRLSCAASGFTFSSYGMNWVRQAPGKGLEWVSGINYNSGYKSYADSVKGRFTISRDNSKNTLYLQMNSLRAEDTAVYYCARGATWHDTHLDYWGQGTLVTVSS
VL: not shown
notes: VH/VL only
Turning to B12, the optical density in experiment [1] was 2.08 OD; in experiment [2], 2.24 OD; in experiment [3], 3.61 OD.

B13: 369_A11 (antibody, V domains shown)
VH: EVQLLESGGGLVQPGGSLRLSCAASGFTFDSYGMNWVRQAPGKGLEWVANINYNGGYKGYADSVKGRFTISRDNSKNTLYLQMNSLRAEDTAVYYCARGATWHDTHLDYWGQGTLVTVSS
VL: DIQMTQSPSSLSASVGDRVTITCRASQSIITYLNWYQQKPGKAPKLVIYAATSRHSGVPSRFSGSGSGTDFTLTISSLQPEDFATYYCQQSYESPLTFGGGTKVEIK
notes: VH/VL only
B13: the optical density in experiment [1] turned out to be 2.64 OD; in experiment [2], 2.77 OD; in experiment [3], 3.29 OD.

B14: 368_H11 (antibody, V domains shown)
VH: EVQLLESGGGLVQPGGSLRLSCAASGFTFDSYGMHWVRQAPGKGLEWVASINYNGGYTSYADSVKGRFTISRDNSKNTLYLQMNSLRAEDTAVYYCARGATWHDTHLDYWGQGTLVTVSS
VL: DIQMTQSPSSLSASVGDRVTITCRASQSILSYLNWYQQKPGKAPKLLIYAATSRASGVPSRFSGSGSGTDFTLTISSLQPEDFATYYCQQSDDTPLTFGGGTKVEIK
notes: VH/VL only
On to B14, for which the optical density came to 1.95 OD in experiment [1], 2.13 OD in experiment [2] and 3.51 OD in experiment [3].

B15: 368_C11 (antibody, V domains shown)
VH: EVQLLESGGGLVQPGGSLRLSCAASGFTFSDYSMNWVRQAPGKGLEWVSSINYNSGYKSYADSVKGRFTISRDNSKNTLYLQMNSLRAEDTAVYYCARGATWHDTHLDYWGQGTLVTVSS
VL: DIQMTQSPSSLSASVGDRVTITCRASQSIISYLNWYQQKPGKAPKLLIYAATSRASGVPSRFSGSGSGTDFTLTISSLQPEDFATYYCQQSYDNPLTFGGGTKVEIK
notes: VH/VL only
Consider B15, for which the optical density in experiment [1] was found to be 2.03 OD; in experiment [2], 2.21 OD; in experiment [3], 3.56 OD.

B16: 368_H06 (antibody, V domains shown)
VH: EVQLLESGGGLVQPGGSLRLSCAASGFTFDSYGMHWVRQAPGKGLEWVANINYNGGYKSYADSVKGRFTISRDNSKNTLYLQMNSLRAEDTAVYYCARGATWHDTHLDYWGQGTLVTVSS
VL: DIQMTQSPSSLSASVGDRVTITCRASQSILTYVNWYQQKPGKAPKLLIYATTSRASGVPSRFSGSGSGTDFTLTISSLQPEDFATYYCQQSYDNPLTFGGGTKVEIK
notes: VH/VL only
Consider B16, for which the optical density in experiment [1] stood at 2.35 OD; in experiment [2] it was 2.65 OD; in experiment [3], 3.61 OD.

B17: 369_C12 (antibody, V domains shown)
VH: EVQLLESGGGLVQPGGSLRLSCAASGFTFSSYGMNWVRQAPGKGLEWVANINYNGGYKGYADSVKGRFTISRDNSKNTLYLQMNSLRAEDTAVYYCARGATWHDTHLDYWGQGTLVTVSS
VL: DIQMTQSPSSLSASVGDRVTITCRASQSILTYLNWYQQKPGKAPKLLIYAATSRHSGVPSRFSGSGSGTDFTLTISSLQPEDFATYYCQQSYDTPLTFGGGTKVEIK
notes: VH/VL only
B17: the figures for the optical density in experiment [1], in experiment [2] and in experiment [3] were 3.43 OD, 3.45 OD and 3.74 OD, respectively.

B18: 369_E05 (antibody, V domains shown)
VH: EVQLLESGGGLVQPGGSLRLSCAASGFTFSDYGMNWVRQAPGKGLEWVANINYNGGYKSYADSVKGRFTISRDNSKNTLYLQMNSLRAEDTAVYYCARGATWHDTHLDYWGQGTLVTVSS
VL: DIQMTQSPSSLSASVGDRVTITCRASQSILTYLNWYQQKPGKAPKLLIYAATSLASGVPSRFSGSGSGTDFTLTISSLQPEDFATYYCQQSYETPLTFGGGTKVEIK
notes: VH/VL only
In the case of B18, the optical density was found to be 1.41 OD in experiment [1], 1.64 OD in experiment [2] and 1.9 OD in experiment [3].
